Data on three molecules can be found in patent US20140295452A1 (PIERRE FABRE MEDICAMENT, published 2014).

In assay [1] the target is recombinant human c-Met-Fc protein (R&D Systems, cat. 358MT) (human) (UniProt P08581). In words: displacement of [125I]-HGF (200 pM) from c-Met-Fc immobilized on protein A FlashPlate. A general note: Displacement assays read how much labelled ligand stays bound in the presence of the test substance.
Assay [2] has as its target T1, human c-Met receptor, native, on tumor cells and tumor tissue (human, UniProt P08581 25-1390).
T1 construct: whole, on cells; Endogenous c-Met of human tumor cell lines, U87-MG xenografts and human tumor tissues; also called native c-Met; native receptor on tumor cells
As to the kind of experiment: IHC on paraffin-embedded human breast and stomach tumor tissues.

Assay [3] deals with T2, recombinant human c-Met-Fc protein (R&D Systems, cat. 358MT) (human, UniProt P08581 25-932).
T2 construct: extracellular domain; Bought reagent (R&D Systems 358MT / 358-MT/CF); also called rh c-Met-Fc; HGF-R/Fc chimera protein; not shown: Fc part; polyhistidine tag implied by capture on an anti-polyhistidine Mab; not described
As to the kind of experiment: Biacore, c-Met-Fc captured by anti-polyhistidine Mab, 224D10 injected second at 20 µg/ml. Background: Surface plasmon resonance follows binding to a sensor surface in real time, without labels.

Assay [4] addresses T2, recombinant human c-Met-Fc protein (R&D …). As to the kind of experiment: displacement of [125I]-HGF (200 pM) from c-Met-Fc immobilized on protein A FlashPlate.

T2 sequence (P08581 25-932): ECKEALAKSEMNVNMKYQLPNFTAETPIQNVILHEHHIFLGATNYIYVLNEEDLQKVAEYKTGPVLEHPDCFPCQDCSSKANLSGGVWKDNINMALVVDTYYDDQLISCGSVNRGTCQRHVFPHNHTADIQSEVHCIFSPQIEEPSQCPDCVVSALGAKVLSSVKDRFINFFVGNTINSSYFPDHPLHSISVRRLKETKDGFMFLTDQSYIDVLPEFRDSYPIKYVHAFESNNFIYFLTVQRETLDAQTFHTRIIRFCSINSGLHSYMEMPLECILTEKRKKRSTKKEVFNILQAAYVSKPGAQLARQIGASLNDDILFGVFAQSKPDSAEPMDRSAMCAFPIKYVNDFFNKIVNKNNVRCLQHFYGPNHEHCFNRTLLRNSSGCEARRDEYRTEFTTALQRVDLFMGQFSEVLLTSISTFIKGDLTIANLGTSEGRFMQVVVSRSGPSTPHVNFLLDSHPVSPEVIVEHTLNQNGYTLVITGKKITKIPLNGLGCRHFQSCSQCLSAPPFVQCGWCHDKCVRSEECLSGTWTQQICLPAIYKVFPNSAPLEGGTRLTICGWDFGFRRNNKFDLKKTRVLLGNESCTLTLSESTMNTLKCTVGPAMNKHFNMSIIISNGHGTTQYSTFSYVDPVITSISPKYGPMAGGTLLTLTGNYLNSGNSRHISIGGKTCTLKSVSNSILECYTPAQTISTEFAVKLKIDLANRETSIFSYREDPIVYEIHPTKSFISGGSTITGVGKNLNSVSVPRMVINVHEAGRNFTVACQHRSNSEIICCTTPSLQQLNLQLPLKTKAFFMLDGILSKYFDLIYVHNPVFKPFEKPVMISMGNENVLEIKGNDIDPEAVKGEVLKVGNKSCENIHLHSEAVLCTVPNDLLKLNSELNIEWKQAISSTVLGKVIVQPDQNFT
recombinant human c-Met-Fc protein (R&D Systems, cat. 358MT) (human), sequence (P08581 25-932): as above
T1 sequence (P08581 25-1390): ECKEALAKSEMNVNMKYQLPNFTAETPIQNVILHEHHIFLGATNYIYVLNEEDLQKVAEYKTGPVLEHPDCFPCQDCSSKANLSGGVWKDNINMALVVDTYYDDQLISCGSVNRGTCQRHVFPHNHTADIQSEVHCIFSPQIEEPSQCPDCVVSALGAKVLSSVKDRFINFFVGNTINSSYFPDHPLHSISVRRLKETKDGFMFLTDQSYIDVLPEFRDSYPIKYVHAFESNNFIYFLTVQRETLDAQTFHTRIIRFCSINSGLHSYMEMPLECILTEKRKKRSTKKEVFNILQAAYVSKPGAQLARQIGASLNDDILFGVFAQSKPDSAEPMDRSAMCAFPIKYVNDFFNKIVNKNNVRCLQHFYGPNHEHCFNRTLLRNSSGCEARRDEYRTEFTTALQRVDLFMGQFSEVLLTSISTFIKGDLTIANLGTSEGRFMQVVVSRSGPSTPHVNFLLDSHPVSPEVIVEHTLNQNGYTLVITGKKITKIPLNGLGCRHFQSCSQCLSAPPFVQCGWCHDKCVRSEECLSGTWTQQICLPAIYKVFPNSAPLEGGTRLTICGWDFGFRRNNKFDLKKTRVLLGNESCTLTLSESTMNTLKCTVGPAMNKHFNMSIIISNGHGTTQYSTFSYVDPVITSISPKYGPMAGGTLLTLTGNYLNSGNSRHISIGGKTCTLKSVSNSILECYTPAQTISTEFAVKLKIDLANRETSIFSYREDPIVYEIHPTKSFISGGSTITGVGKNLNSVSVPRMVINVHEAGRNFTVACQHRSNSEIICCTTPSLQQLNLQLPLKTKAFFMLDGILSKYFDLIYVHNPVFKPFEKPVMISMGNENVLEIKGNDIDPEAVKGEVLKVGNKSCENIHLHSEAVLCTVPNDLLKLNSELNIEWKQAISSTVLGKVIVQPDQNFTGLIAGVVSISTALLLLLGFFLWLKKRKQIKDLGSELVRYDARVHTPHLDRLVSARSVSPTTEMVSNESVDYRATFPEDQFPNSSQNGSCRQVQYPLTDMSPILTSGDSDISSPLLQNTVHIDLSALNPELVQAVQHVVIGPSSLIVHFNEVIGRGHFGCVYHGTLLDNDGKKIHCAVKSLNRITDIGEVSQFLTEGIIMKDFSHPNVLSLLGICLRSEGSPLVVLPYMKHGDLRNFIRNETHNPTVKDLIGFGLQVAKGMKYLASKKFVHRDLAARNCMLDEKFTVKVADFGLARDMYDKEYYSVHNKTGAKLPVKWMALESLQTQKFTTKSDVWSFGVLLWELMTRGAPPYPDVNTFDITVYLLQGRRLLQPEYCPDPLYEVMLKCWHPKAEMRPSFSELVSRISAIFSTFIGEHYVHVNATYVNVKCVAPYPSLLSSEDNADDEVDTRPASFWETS

In general, IC50 refers to the concentration that gives 50% inhibition. “5D5 anti-c-Met Mab (Genentech, hybridoma at the ATCC) (antibody)”: the IC50 in assay [1] was found to be 4.4 nM.

B1: murine 224D10 monoclonal antibody (antibody, V domains shown)
VH: DLQLQESGPGLVKPSQSLSLTCSVTGYSITSAYFWSWIRQFPGNKLEWMGFINYDGTNNYNPSLKNRISITRDTSKNQFFLRLNSVTTDDTATYYCTRDRTFAYWGQGTLVTVSA
VL: DIVLTQSPATLSVTPGDRVSLSCRASQRIYNYLHWYQQKSHESPRLLIKYASQSISGIPSRFSGSGSGTDFILTINSVETEDFGMYFCQQSNSWPLTFGAGTKLELR
notes: Whole murine monoclonal antibody secreted by hybridoma CNCM I-3949; a murine IgG1 (9G4) served as its isotype control; also called m224D10; 224D10 Mab
Regarding B1, the binding result in assay [2] and in assay [3] was “binds” each time.

B2: 11E1 anti-c-Met Mab (antibody, V domains shown)
VH: QVQLQQSGAELAKPGASVKMSCKASGYTFTSYWMNWVKQRPGQGLEWIGYINPTTGSTDYNQKLKDKATLTADKSSNTAYMQLSSLTSEDSAVYYCAIGGYGSWFAYWGQGTLVTVSA
VL: QIVLTQSPAIMSASPGEKVTLTCSASSSVSSTYLYWYQQKPGSSPKLWIYTTSILASGVPARFSGSGSGTSYSLTISSMETEDAASYFCHQWSSYPFTFGSGTKLDIK
B2: the half-maximal inhibitory concentration (IC50) in assay [4] is 42 nM.
